± gives the half width of the 95% confidence interval.
Experiments:
[1] = folding stability dG unfold (combined trypsin and chymotrypsin); higher = more stable
Method in brief: (§1)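 Mini-proteins designed to be under 80 residues and free of cysteine were carried in a PA-tagged cDNA display construct and digested with trypsin and with chymotrypsin. Each protease was applied at 11 threefold-diluted concentrations, alongside a no-protease condition, before sequencing. K50 came from Bayesian fitting of the sequencing counts, and unfolding free energy was obtained by comparing it with a sequence-predicted unfolded-state K50 and a shared folded-state K50, for each protease separately or for both together. Designs were retained only if their AlphaFold2 dimer inter-PAE exceeded 15.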

[2] = folding stability dG unfold from chymotrypsin proteolysis; higher = more stable
Method in brief: as §1

[3] = folding stability dG unfold from trypsin proteolysis; higher = more stable
Method in brief: as §1

Sequence	folding stability dG unfold [1] [kcal/mol]	folding stability dG unfold [2] [kcal/mol]	folding stability dG unfold [3] [kcal/mol]
SGREEEIAEELREKLLAEGYTEVEVEIEVRPDPNSDNVLVTVTVRATKKDAEGNWKTYEETIPVLIPAEASA [r9_440_JUSTAS]	3.11 ± 0.25	3.23 ± 0.15	3.12 ± 0.26
SGSMTLVSESTVPEKGTTLLTLKFPNGAPATVTLNPDGSSTTTFPATGLPFTVTVGSGTLTVTTPAALALSA [r9_233_JUSTAS]	1.23 ± 0.18	1.42 ± 0.12	1.01 ± 0.1
SGSSYLPLEDVKTEWKKNPNSDVYNYTTFLQTPSGEPISVTYDPKTGKITFNLPPGTTWRPGKKSEVKLESA [r9_509_JUSTAS]	0.864 ± 0.16	1.13 ± 0.23	0.124 ± 0.16
SGVEYIEIPLEVTLDAPLEKAFEFLEDLAEEFGLGDIEVLEVEVDPETGKVRVKALARIAIAPPPPPSLESA [r9_918_TrMRF]	3.19 ± 0.17	3.53 ± 0.11	2.83 ± 0.044
SGVLVVTHPDGSVSTVPFTHPDGLVVDISAGVDAPLYATVVRLLPDGTPEPLPVFEFDSIEDVLEALAEASA [r9_942_TrMRF]	1.61 ± 0.023	1.983 ± 0.014	0.545 ± 0.016
SHPDEFPKELVDAIAKAFPNIKRIEVEPLPDKFVLLKVEFIDGDGEGRVAFAVPTPDGETALHEYLVRNPSA [r9_678_TrMRF]	1.14 ± 0.056	1.23 ± 0.062	1 ± 0.013
SHWVRKELQEKGYPVKDIEMNPPQGYFYITIQRKRPRKGKPKKKEITIPMDPNMTPDNMLWMARNALDAYSA [r9_184_TrROS]	0.804 ± 0.1	0.594 ± 0.14	1.05 ± 0.14
SIEFKEGQWFPIREIDNNHIEWKHNNEPYKIPPDEIDEPGDWIRITNGRIPEIRPPPPPPVDPEDAKKKKSA [r9_842_TrROS]	3.51 ± 0.33	4.12 ± 0.32	2.6 ± 0.32
SIINALREALKDGKPGQEIPIMMPPDGMGELMNWLQDYGFKPKKMEPMPMNNRPMYTHEFTIDPKNGKFRSA [r9_498_TrROS]	0.0967 ± 0.29	0.26 ± 0.26	-0.0613 ± 0.39
SIKELAKELPGFQVSVEPDDPGQVKITIMVPDDPQQQKRFQNKIIELANDIQGEHGMPVTIEIQPVPPGDSA [r9_1099_TrROS]	-0.00283 ± 0.081	0.0536 ± 0.096	-0.238 ± 0.056
SIKLSNGETIEYEPSPNKTYTIKHPDGRVVKILKVEREKDKYTVEIQFDDGSTKTIEIPPDKPEIIEKELLS [r1_66_JUSTAS]	1.24 ± 0.12	0.951 ± 0.08	1.37 ± 0.027
SIRGMPPEVVLYIIRFFAREQKNKGMPPDDRPIEINIMMPNPEARKDAKKEIKEENPGIKDVKIEVMPPNSA [r9_341_TrROS]	2.61 ± 0.56	3.1 ± 0.17	2.2 ± 0.11
SITIMVDNLPPGATAEELASTLFNWIQQFGWEVTPIKITPMPDNWVTVEIEFKNNGKPIFRETIEFRPDASA [r9_953_TrROS]	3.26 ± 0.09	3.56 ± 0.06	2.4 ± 0.092
SIVIRLPDGKPLMIQLTMYYPPDNDKIEIPVEIYDGGKPRTFEHEIPPGDNKPVTFSLHIPLPPGAYIKISA [r9_973_TrROS]	2.38 ± 0.23	2.45 ± 0.14	2.17 ± 0.12
SIWFSPGKKYKIDEIRFGGWEIEKFTAQVGPDGNIQIPMDIKPVKKPPPPPPVVRNPEDGKYYDPGDPKDSA [r9_603_TrROS]	1.04 ± 0.78	1.64 ± 0.25	-0.127 ± 0.39
SIYIMLPVPPGKPYKLSIEIEMPDNGRPYEYDGTFNPENGWVMFPVRFPDNGHPIPPEDFKVKVELEPPKSA [r9_928_TrROS]	2.07 ± 0.23	2.45 ± 0.14	1.42 ± 0.072
SKDPNNEWVVIKFEVTIPVPPGQKPITADEIASQVRQIMQNHGMEITSVEVEYRGNQVTVSVEIVIPKKASA [r9_1134_TrROS]	3.22 ± 0.18	3.32 ± 0.11	3.23 ± 0.19
SKEEEEEIEIEIVVPNLTEEEIKELAKELLEKKGYEVEEIEITEEELEELKNKKPGDEVVIKIKIKVKKKSA [r9_1163_TrROS_Hall]	2.51 ± 0.2	2.27 ± 0.073	2.51 ± 0.19
SKEVKITIEVKEVNGKLYVVVKVEVNGKEETLVFKSLEEAKNAIAKKLGLPKEKIKIKKVEVYKVSKKDLSA [r9_909_TrROS_Hall]	1.07 ± 0.24	0.869 ± 0.21	0.964 ± 0.16
SKGKKTVTINFMLKVEDPEDLPPGQEVKIPPEFIDFLRDQGFKITEIKIRVVPPPDGDVYVMFSSTIEVDSA [r9_465_TrROS]	2.88 ± 0.34	3.53 ± 0.1	1.99 ± 0.097
SKGTFMAMMPLDEIKEIVENFAKQGWNIKIKPKSIQPFPFPHNDEDGEPEPYPMVMVEVEIKIVPPGDPPSA [r9_991_TrROS]	1.64 ± 0.097	1.89 ± 0.086	1.33 ± 0.024

Sequence	folding stability dG unfold [1] [kcal/mol]	folding stability dG unfold [2] [kcal/mol]	folding stability dG unfold [3] [kcal/mol]
SKIEIEVFPEEGFIRIRLEAENLTEEELKDAIIEFIKSLGFPAEVEILRIEPSGNTIRIEALVKVEPGYLSA [r9_347_TrMRF]	2.97 ± 0.093	2.673 ± 0.022	3.27 ± 0.12
SKIRIIRPERSLEIDLPKSARIEFDPETRRIYFINPDGERLEFPLGPNAVIIPGDDEITIIDPPASPENPSA [r9_653_TrMRF]	3.19 ± 0.079	3.68 ± 0.042	2.21 ± 0.038
SKKIKIILRYPDGWYVKAEMEVPNGKERDIWFPNPEEAIEWAKTIARQFNPGVEIEDIETVPPDDLPPNFSA [r9_137_TrROS]	1.61 ± 0.23	1.86 ± 0.077	1.21 ± 0.084
SKKKTLKIVDKETNVVIEMTAEELAEKLGLSVEDLEIEVVDLKTKEVKTIKIKLPKPKPEEKKKVKEEEKSA [r9_819_TrROS_Hall]	0.75 ± 0.15	1.18 ± 0.046	-0.336 ± 0.23
SKKKVTIEIEIVVRVPEGDELKNMTAEELAALLAEELGVEVEIVEVELVEYDEETGEYYVRIKVKITFPESA [r9_107_TrROS_Hall]	2.76 ± 0.14	2.83 ± 0.13	2.95 ± 0.17
SKKPKLKIEIEIPEITNMQPDPDNGKYTMRVPFRIKIEWKDNGKEREVDIPIPMNMTVDDARDQLKDLLKSA [r9_656_TrROS]	1.1 ± 0.13	1.57 ± 0.16	0.629 ± 0.044
SKKTVTIELYVPNMTPEQLRALLEALGYKVKKEEFDEDRGVVRLTVELPEDGTTITITIVRPPLPPGEKPSA [r9_1090_TrROS_Hall]	2.59 ± 0.12	2.54 ± 0.046	2.25 ± 0.12
SKKVEIKIKVERNEDGYLTVTIEIRAETEEELLEAAKELAKALFPEDVEIRVEKLPDGTVKITIVVKLPPSA [r9_646_TrROS_Hall]	2.29 ± 0.14	1.9 ± 0.11	2.65 ± 0.15
SKKVKITEITFPEGATFDGKKVTVTIKIVDEETGTVTITEITVDKNGKVTIKEVTVKVDPKTGKIVEITPSA [r9_122_TrROS_Hall]	1.8 ± 0.19	2.02 ± 0.04	1.74 ± 0.06
SKKVKPIATIDVEGMSLEELLAAIKAALPPGEKAIVRIVNADGEVRTIEIDAKTGEIKSLPPGARIYIYPSA [r9_853_TrROS_Hall]	2.02 ± 0.048	1.95 ± 0.035	2.1 ± 0.027
SKKVTIMIMIRRRDPEDGKYRPIPPEFILEMVRRARKKGKKVKITFMNPDNPWAKRLAKRAKEEGIKIEWSA [r9_468_TrROS]	2.1 ± 0.11	2.1 ± 0.14	2 ± 0.05
SKLKIEEIEINPNMPYTISVKLPDGFYISIQYDPGKPDQMKMNIFPPDGKKREHTIPANEPIRINFEIEPSA [r9_875_TrROS]	2.19 ± 0.12	2.55 ± 0.04	1.35 ± 0.034
SKLPPGQPYRRVEMTITFDFKSPKELRKKIRELFGKIEVDMKHNPEDNWYTIDIWFPSPAVMDELKELIFSA [r9_764_TrROS]	3.07 ± 0.23	3.29 ± 0.061	3.06 ± 0.17
SKLVEKIAEEFGISSAMPHPDGQFMIMFPDGYMIKINIEIDEVKPKPDGKPELDLDIEIEIIPMPPPDDMSA [r9_648_TrROS]	2.39 ± 0.19	2.74 ± 0.072	2.05 ± 0.067
SKPDAPKIVELLRELFPDLEITSVSYDPETGTYTVTFPDGVVAEVHVDPNGNVHIVLRTPTSERTFTLPVSA [r9_304_TrMRF]	2.55 ± 0.07	2.38 ± 0.043	2.68 ± 0.1
SKPETVTFPFNIPLKDMPLEDIKEEAKEWLRNFGYKVEKPEITPEMLKLLKDMPPGQEIPITITIKVEPKSA [r9_1163_TrROS]	0.828 ± 0.085	1.08 ± 0.18	0.301 ± 0.12
SKPIPVKITIETKTNPNGEPITTITIDKGDKTYSLPLGNAKILEIDPEKQYIIIYNPETGSILILKPSDLSA [r9_1186_TrMRF]	2.95 ± 0.058	3.14 ± 0.06	2.54 ± 0.059
SKPNLEVKEVEIKMTAEEIKKLLKPNVTKIEKVNGKYYVTVKVNGVLVKIEIKYDKETNEVTVKIYVIKPSA [r9_604_TrROS_Hall]	2.88 ± 0.11	3.115 ± 0.03	2.37 ± 0.072
SKTIYIPKNVPIDYILKVVKEAEKKGKPVKIVIETYNNPKVIEALKKAGYKVEIKEDKKKKITLIVVYPESA [r9_759_TrMRF]	4.2 ± 0.39	4.35 ± 0.11	3.33 ± 0.2
SKTVEITLTNEDGSTVTITFNEETGKIVIKVPPNVSVEQIKALLRKLLPPGAEVTITRTPNGYYEIEVKPSA [r9_933_TrROS_Hall]	4.14 ± 0.098	4.41 ± 0.13	3.68 ± 0.13
SKTVVIKIDNRVPVPKSDKYVPIKEEFFLKVINEIKKKGYKVIITGANPDNPLAKEVAKKAKELGFEVVGSA [r9_468_TrMRF]	0.922 ± 0.065	0.805 ± 0.082	0.992 ± 0.014

From the supplement of paper PMC12764529
